According to patent publication US20160272683A1 (Novo Nordisk, published 2016):
Numbered stars: 1 amine (or outer) side, 2 acyl side, 3 side chain; on linkers, the order of the positions; unused ones are H or OH. * marks the point of attachment. C20 diacid = O=C(O)CCCCCCCCCCCCCCCCCCC(=O)*; C18 diacid = O=C(O)CCCCCCCCCCCCCCCCC(=O)*; γGlu = O=C(O)[C@H](CCC(=O)[*:2])N[*:1]; AEEA = NCCOCCOCC(=O)O

Experiments:
[1] = molecular target: T1, human amylin 3(a) receptor (human calcitonin receptor co-expressed with RAMP-3) (human, UniProt P30988 25-474; O60896 24-148, limits assumed); test: cell-based or functional assay
T1 sequence (looked up) 1: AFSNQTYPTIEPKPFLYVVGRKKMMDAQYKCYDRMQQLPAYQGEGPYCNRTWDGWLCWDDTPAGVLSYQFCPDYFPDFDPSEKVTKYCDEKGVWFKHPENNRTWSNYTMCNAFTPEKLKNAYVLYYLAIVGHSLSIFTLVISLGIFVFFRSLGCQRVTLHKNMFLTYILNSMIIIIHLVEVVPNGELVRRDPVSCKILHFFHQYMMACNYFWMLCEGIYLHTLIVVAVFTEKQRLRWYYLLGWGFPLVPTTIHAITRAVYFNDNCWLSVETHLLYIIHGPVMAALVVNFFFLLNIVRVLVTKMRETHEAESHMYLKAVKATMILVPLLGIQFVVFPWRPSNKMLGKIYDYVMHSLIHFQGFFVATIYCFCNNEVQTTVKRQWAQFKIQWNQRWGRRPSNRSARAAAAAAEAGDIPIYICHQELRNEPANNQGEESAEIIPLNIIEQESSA
T1 sequence (looked up) 2: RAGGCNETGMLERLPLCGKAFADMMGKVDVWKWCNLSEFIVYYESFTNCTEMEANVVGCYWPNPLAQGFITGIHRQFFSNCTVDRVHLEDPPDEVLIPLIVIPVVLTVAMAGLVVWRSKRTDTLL

[2] = molecular target: T2, human calcitonin receptor (human, UniProt P30988 25-474); test: cell-based or functional assay
T2 sequence (looked up): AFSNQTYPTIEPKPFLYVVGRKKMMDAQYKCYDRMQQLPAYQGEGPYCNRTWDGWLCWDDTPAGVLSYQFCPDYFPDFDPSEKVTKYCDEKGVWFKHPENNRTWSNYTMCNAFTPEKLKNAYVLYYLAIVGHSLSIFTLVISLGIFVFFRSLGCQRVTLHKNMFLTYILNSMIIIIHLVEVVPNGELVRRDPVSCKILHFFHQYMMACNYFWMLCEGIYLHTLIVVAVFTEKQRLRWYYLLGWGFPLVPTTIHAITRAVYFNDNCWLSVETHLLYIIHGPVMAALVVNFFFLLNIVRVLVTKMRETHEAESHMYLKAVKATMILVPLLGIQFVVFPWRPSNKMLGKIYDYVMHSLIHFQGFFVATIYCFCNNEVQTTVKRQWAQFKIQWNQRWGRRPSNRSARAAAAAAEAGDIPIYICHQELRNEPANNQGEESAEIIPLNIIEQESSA

Row | Binder | hAmylin-R funct. EC50 (pM) [1] | hCTR funct. EC50 (pM) [2]
1 | {C20 diacid-γGlu}-EASQLSTAVLGRLSQELHELQTYPRTGTGSGTY-NH2 (SMILES CC(C)C[C@H](NC(=O)[C@H](CCCNC(=N)N)NC(=O)CNC(=O)[C@H](CC(C)C)NC(=O)[C@@H](NC(=O)[C@H](C)NC(=O)[C@@H](NC(=O)[C@H](CO)NC(=O)[C@H](CC(C)C)NC(=O)[C@H](CCC(N)=O)NC(=O)[C@H](CO)NC(=O)[C@H](C)NC(=O)[C@H](CCC(=O)O)NC(=O)CC[C@H](NC(=O)CCCCCCCCCCCCCCCCCCC(=O)O)C(=O)O)[C@@H](C)O)C(C)C)C(=O)N[C@@H](CO)C(=O)N[C@@H](CCC(N)=O)C(=O)N[C@@H](CCC(=O)O)C(=O)N[C@@H](CC(C)C)C(=O)N[C@@H](Cc1c[nH]cn1)C(=O)N[C@@H](CCC(=O)O)C(=O)N[C@@H](CC(C)C)C(=O)N[C@@H](CCC(N)=O)C(=O)N[C@H](C(=O)N[C@@H](Cc1ccc(O)cc1)C(=O)N1CCC[C@H]1C(=O)N[C@@H](CCCNC(=N)N)C(=O)N[C@H](C(=O)NCC(=O)N[C@H](C(=O)NCC(=O)N[C@@H](CO)C(=O)NCC(=O)N[C@H](C(=O)N[C@@H](Cc1ccc(O)cc1)C(N)=O)[C@@H](C)O)[C@@H](C)O)[C@@H](C)O)[C@@H](C)O) [[N-terminal(C20 diacid-gGlu), 4Q, 9V, 15Q, 21Q, 23Y, 27G, 30S, 31G, 32T, 33Y]mimylin] | 66 pM | 56 pM
2 | {C20 diacid-γGlu}-ASQLSTAVLGRLSQELHELQTYPRTETGSQTY-NH2 (SMILES CC(C)C[C@H](NC(=O)[C@H](CCCNC(=N)N)NC(=O)CNC(=O)[C@H](CC(C)C)NC(=O)[C@@H](NC(=O)[C@H](C)NC(=O)[C@@H](NC(=O)[C@H](CO)NC(=O)[C@H](CC(C)C)NC(=O)[C@H](CCC(N)=O)NC(=O)[C@H](CO)NC(=O)[C@H](C)NC(=O)CC[C@H](NC(=O)CCCCCCCCCCCCCCCCCCC(=O)O)C(=O)O)[C@@H](C)O)C(C)C)C(=O)N[C@@H](CO)C(=O)N[C@@H](CCC(N)=O)C(=O)N[C@@H](CCC(=O)O)C(=O)N[C@@H](CC(C)C)C(=O)N[C@@H](Cc1c[nH]cn1)C(=O)N[C@@H](CCC(=O)O)C(=O)N[C@@H](CC(C)C)C(=O)N[C@@H](CCC(N)=O)C(=O)N[C@H](C(=O)N[C@@H](Cc1ccc(O)cc1)C(=O)N1CCC[C@H]1C(=O)N[C@@H](CCCNC(=N)N)C(=O)N[C@H](C(=O)N[C@@H](CCC(=O)O)C(=O)N[C@H](C(=O)NCC(=O)N[C@@H](CO)C(=O)N[C@@H](CCC(N)=O)C(=O)N[C@H](C(=O)N[C@@H](Cc1ccc(O)cc1)C(N)=O)[C@@H](C)O)[C@@H](C)O)[C@@H](C)O)[C@@H](C)O) [[N-terminal(C20 diacid-gGlu), des1, 4Q, 9V, 15Q, 21Q, 23Y, 30S, 31Q, 32T, 33Y]mimylin] | 62 pM | 63 pM
3 | {C18 diacid}-EASELSTAALGRLSAEIHELATLPRTETGPESP-NH2 (SMILES CC[C@H](C)[C@H](NC(=O)[C@H](CCC(=O)O)NC(=O)[C@H](C)NC(=O)[C@H](CO)NC(=O)[C@H](CC(C)C)NC(=O)[C@H](CCCNC(=N)N)NC(=O)CNC(=O)[C@H](CC(C)C)NC(=O)[C@H](C)NC(=O)[C@H](C)NC(=O)[C@@H](NC(=O)[C@H](CO)NC(=O)[C@H](CC(C)C)NC(=O)[C@H](CCC(=O)O)NC(=O)[C@H](CO)NC(=O)[C@H](C)NC(=O)[C@H](CCC(=O)O)NC(=O)CCCCCCCCCCCCCCCCC(=O)O)[C@@H](C)O)C(=O)N[C@@H](Cc1c[nH]cn1)C(=O)N[C@@H](CCC(=O)O)C(=O)N[C@@H](CC(C)C)C(=O)N[C@@H](C)C(=O)N[C@H](C(=O)N[C@@H](CC(C)C)C(=O)N1CCC[C@H]1C(=O)N[C@@H](CCCNC(=N)N)C(=O)N[C@H](C(=O)N[C@@H](CCC(=O)O)C(=O)N[C@H](C(=O)NCC(=O)N1CCC[C@H]1C(=O)N[C@@H](CCC(=O)O)C(=O)N[C@@H](CO)C(=O)N1CCC[C@H]1C(N)=O)[C@@H](C)O)[C@@H](C)O)[C@@H](C)O) [[N-terminal(C18 diacid), 17I]mimylin] | 7 pM | 5 pM
4 | {C20 diacid-γGlu}-ASGLSTAALGRLSQELHELQTYPHTETGSGTY-NH2 (SMILES CC(C)C[C@H](NC(=O)CNC(=O)[C@H](CO)NC(=O)[C@H](C)NC(=O)CC[C@H](NC(=O)CCCCCCCCCCCCCCCCCCC(=O)O)C(=O)O)C(=O)N[C@@H](CO)C(=O)N[C@H](C(=O)N[C@@H](C)C(=O)N[C@@H](C)C(=O)N[C@@H](CC(C)C)C(=O)NCC(=O)N[C@@H](CCCNC(=N)N)C(=O)N[C@@H](CC(C)C)C(=O)N[C@@H](CO)C(=O)N[C@@H](CCC(N)=O)C(=O)N[C@@H](CCC(=O)O)C(=O)N[C@@H](CC(C)C)C(=O)N[C@@H](Cc1c[nH]cn1)C(=O)N[C@@H](CCC(=O)O)C(=O)N[C@@H](CC(C)C)C(=O)N[C@@H](CCC(N)=O)C(=O)N[C@H](C(=O)N[C@@H](Cc1ccc(O)cc1)C(=O)N1CCC[C@H]1C(=O)N[C@@H](Cc1c[nH]cn1)C(=O)N[C@H](C(=O)N[C@@H](CCC(=O)O)C(=O)N[C@H](C(=O)NCC(=O)N[C@@H](CO)C(=O)NCC(=O)N[C@H](C(=O)N[C@@H](Cc1ccc(O)cc1)C(N)=O)[C@@H](C)O)[C@@H](C)O)[C@@H](C)O)[C@@H](C)O)[C@@H](C)O) [[N-terminal(C20 diacid-gGlu), des1, 4G, 15Q, 21Q, 23Y, 25H, 30S, 31G, 32T, 33Y]mimylin] | 41 pM | 27 pM
5 | {C20 diacid-γGlu}-ASGLSTAVLGRLSQELHELQTYPRTETGSGTY-NH2 (SMILES CC(C)C[C@H](NC(=O)CNC(=O)[C@H](CO)NC(=O)[C@H](C)NC(=O)CC[C@H](NC(=O)CCCCCCCCCCCCCCCCCCC(=O)O)C(=O)O)C(=O)N[C@@H](CO)C(=O)N[C@H](C(=O)N[C@@H](C)C(=O)N[C@H](C(=O)N[C@@H](CC(C)C)C(=O)NCC(=O)N[C@@H](CCCNC(=N)N)C(=O)N[C@@H](CC(C)C)C(=O)N[C@@H](CO)C(=O)N[C@@H](CCC(N)=O)C(=O)N[C@@H](CCC(=O)O)C(=O)N[C@@H](CC(C)C)C(=O)N[C@@H](Cc1c[nH]cn1)C(=O)N[C@@H](CCC(=O)O)C(=O)N[C@@H](CC(C)C)C(=O)N[C@@H](CCC(N)=O)C(=O)N[C@H](C(=O)N[C@@H](Cc1ccc(O)cc1)C(=O)N1CCC[C@H]1C(=O)N[C@@H](CCCNC(=N)N)C(=O)N[C@H](C(=O)N[C@@H](CCC(=O)O)C(=O)N[C@H](C(=O)NCC(=O)N[C@@H](CO)C(=O)NCC(=O)N[C@H](C(=O)N[C@@H](Cc1ccc(O)cc1)C(N)=O)[C@@H](C)O)[C@@H](C)O)[C@@H](C)O)[C@@H](C)O)C(C)C)[C@@H](C)O) [[N-terminal(C20 diacid-gGlu), des1, 4G, 9V, 15Q, 21Q, 23Y, 30S, 31G, 32T, 33Y]mimylin] | 57 pM | 65 pM
6 | {C20 diacid-γGlu}-ASGLSTAVLGRLSQELHELQTYPRTETGSQTY-NH2 (SMILES CC(C)C[C@H](NC(=O)CNC(=O)[C@H](CO)NC(=O)[C@H](C)NC(=O)CC[C@H](NC(=O)CCCCCCCCCCCCCCCCCCC(=O)O)C(=O)O)C(=O)N[C@@H](CO)C(=O)N[C@H](C(=O)N[C@@H](C)C(=O)N[C@H](C(=O)N[C@@H](CC(C)C)C(=O)NCC(=O)N[C@@H](CCCNC(=N)N)C(=O)N[C@@H](CC(C)C)C(=O)N[C@@H](CO)C(=O)N[C@@H](CCC(N)=O)C(=O)N[C@@H](CCC(=O)O)C(=O)N[C@@H](CC(C)C)C(=O)N[C@@H](Cc1c[nH]cn1)C(=O)N[C@@H](CCC(=O)O)C(=O)N[C@@H](CC(C)C)C(=O)N[C@@H](CCC(N)=O)C(=O)N[C@H](C(=O)N[C@@H](Cc1ccc(O)cc1)C(=O)N1CCC[C@H]1C(=O)N[C@@H](CCCNC(=N)N)C(=O)N[C@H](C(=O)N[C@@H](CCC(=O)O)C(=O)N[C@H](C(=O)NCC(=O)N[C@@H](CO)C(=O)N[C@@H](CCC(N)=O)C(=O)N[C@H](C(=O)N[C@@H](Cc1ccc(O)cc1)C(N)=O)[C@@H](C)O)[C@@H](C)O)[C@@H](C)O)[C@@H](C)O)C(C)C)[C@@H](C)O) [[N-terminal(C20 diacid-gGlu), des1, 4G, 9V, 15Q, 21Q, 23Y, 30S, 31Q, 32T, 33Y]mimylin] | 72 pM | 49 pM
7 | {C20 diacid-γGlu-AEEA-AEEA}-ASGLSTAVLGRLSQELHELQTYPRTETGSGTY-NH2 (SMILES CC(C)C[C@H](NC(=O)CNC(=O)[C@H](CO)NC(=O)[C@H](C)NC(=O)COCCOCCNC(=O)COCCOCCNC(=O)CC[C@H](NC(=O)CCCCCCCCCCCCCCCCCCC(=O)O)C(=O)O)C(=O)N[C@@H](CO)C(=O)N[C@H](C(=O)N[C@@H](C)C(=O)N[C@H](C(=O)N[C@@H](CC(C)C)C(=O)NCC(=O)N[C@@H](CCCNC(=N)N)C(=O)N[C@@H](CC(C)C)C(=O)N[C@@H](CO)C(=O)N[C@@H](CCC(N)=O)C(=O)N[C@@H](CCC(=O)O)C(=O)N[C@@H](CC(C)C)C(=O)N[C@@H](Cc1c[nH]cn1)C(=O)N[C@@H](CCC(=O)O)C(=O)N[C@@H](CC(C)C)C(=O)N[C@@H](CCC(N)=O)C(=O)N[C@H](C(=O)N[C@@H](Cc1ccc(O)cc1)C(=O)N1CCC[C@H]1C(=O)N[C@@H](CCCNC(=N)N)C(=O)N[C@H](C(=O)N[C@@H](CCC(=O)O)C(=O)N[C@H](C(=O)NCC(=O)N[C@@H](CO)C(=O)NCC(=O)N[C@H](C(=O)N[C@@H](Cc1ccc(O)cc1)C(N)=O)[C@@H](C)O)[C@@H](C)O)[C@@H](C)O)[C@@H](C)O)C(C)C)[C@@H](C)O) [[N-terminal(C20 diacid-gGlu-2xOEG), des1, 4G, 9V, 15Q, 21Q, 23Y, 30S, 31G, 32T, 33Y]mimylin] | 89 pM | 52 pM
